What is called EC50 is the concentration needed to bring the measured effect to its halfway point.

These results are taken from patent US9809653B2, “Anti-LAMP1 antibodies and antibody drug conjugates, and uses thereof” (SANOFI, priority 2012, dated 2017).

Assay [1] addresses T1, Hybrid LAMP1 / glycan-deleted LAMP1 transmembrane proteins (Mus musculus, UniProt P11438, A146K/E181G/G176S/K100R/K140R/K180R/L93T/N144D/N177S/S175N/T102A/Y92H).
T1 construct: expressed in transfected cells; host or cells: 293-F (HEK293-derived), transient transfection
T1 sequence (P11438 with tags, fused parts or gaps Y92H/L93T/K100R/T102A/K140R/N144D/A146K/S175N/G176S/N177S/K180R/E181G): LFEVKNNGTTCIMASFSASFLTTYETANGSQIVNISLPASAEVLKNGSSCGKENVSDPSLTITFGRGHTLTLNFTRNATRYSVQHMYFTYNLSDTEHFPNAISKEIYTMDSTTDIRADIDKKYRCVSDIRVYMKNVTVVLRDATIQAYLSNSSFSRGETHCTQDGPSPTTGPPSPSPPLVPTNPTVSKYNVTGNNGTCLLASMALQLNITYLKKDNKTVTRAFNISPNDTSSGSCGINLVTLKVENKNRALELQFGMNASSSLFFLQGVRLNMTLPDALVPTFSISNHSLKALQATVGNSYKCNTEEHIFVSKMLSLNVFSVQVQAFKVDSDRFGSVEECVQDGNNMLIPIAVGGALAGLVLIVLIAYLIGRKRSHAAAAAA
Briefly: Binding onto membrane-anchored hybrid or mutated LAMP1 proteins (293-F cells) by flow cytometry. Set-up: species or system human/mouse. The settings on record: pXL6092 mLAMP1_hseq6-9-11_ΔGYQTI; Table 17 Experiment no2. The protocol: Different LAMP1 proteins were expressed at the cell membrane of HEK293 cells after transient expression from mammalian plasmids encoding the entire coding sequence of LAMP1 deleted of the intracellular lysosome-targeting motif GYQTI and substituted by a 5-Ala repeat sequence.
Two days post transfection cells were processed, analyzed by flow cytometry (Guava® easyCyte™ 8HT) as mentioned in example 4.7, and the mean fluorescence was recorded. This fluorescence represents a semi-quantitative assessment of binding.
Background: Flow cytometry measures light scatter and fluorescence of single cells or particles in a stream.

The test system of assay [2] is cynomolgus monkey LAMP1 expressed transiently at the cell surface of HEK293. Briefly: FACS on HEK293 cells transiently transfected with cynomolgus LAMP1. The settings on record: transient HEK293. Type of assay: binding. An excerpt: (§1) LAMP1 Coding DNA Sequence, RefSeq NM_005561.3 (SEQ ID NO: 23) was cloned internally. The CDS of Macaca mulatta LAMP1, RefSeq XP_001087801 (SEQ ID NO: 27) was also cloned internally. The predicted sequences of mature LAMP1 from Macaca mulatta and Macaca fascicularis are identical to 99%, said sequence differing by one additional Leucin at position 11 of Macaca mulatta (SEQ ID NO: 27), i.e. in the signal peptide. The mature LAMP1 proteins of Macaca mulatta and Macaca fascicularis are identical. Therefore the secreted LAMP1 used in the following example is referred to cynomolgus monkey. Both CDS were cloned into mammalian expression plasmids under CMV enhancer/promoter and SV40 polyA signals. HEK293 cells (Invitrogen; #K9000-10.) were transiently transfected with human LAMP1 or cynomolgus LAMP1 plasmids using FreeStyle™ MAX 293 Expression System according to the manufacturer's instructions. […] 100 μL/well of goat anti-mouse IgG conjugated with Alexa647 (Invitrogen; #A2135) was added for 45 min at 4° C. and washed three times with PBS 1% BSA. The antibody binding was evaluated after centrifugation and resuspension of cells by adding 200 μl/well PBS 1% BSA and read using Guava® easyCyte™ 8HT Flow Cytometry System. EC50 values were estimated using BIOST@T-SPEED software.

The test system of assay [3] is cynomolgus monkey LAMP1 protein (SEQ ID NO: 29). Nature of the assay: ELISA on cynomolgus monkey LAMP1. Type of assay: binding. The settings on record: FIG. 3. The protocol: Extracellular domain of LAMP1 of human (Ala29-Met382 of SEQ ID NO: 24) and cynomolgus monkey LAMP1 (Ala27-Met380 of SEQ ID NO: 39) were prepared as described in example 6.2. […] The antibody binding was visualized by adding TMB-H2O2 buffer and read at a wavelength of 450 nm.
Antibody MAb4 was assessed for its ability to bind primate LAMP1 protein by enzyme-linked immunosorbent assay (ELISA) assay as described in example 4.7 and EC50 values determined as described in example 6.2.
Background: An ELISA detects its analyte on a solid surface through an enzyme-linked reagent.

Assay [4] concerns the target T2, human LAMP1 expressed transiently at the cell surface of HEK293 (Homo sapiens, UniProt P11279).
T2 construct: expressed in transfected cells; host or cells: HEK293 (Invitrogen K9000-10), transient transfection
T2 sequence (P11279 29-417): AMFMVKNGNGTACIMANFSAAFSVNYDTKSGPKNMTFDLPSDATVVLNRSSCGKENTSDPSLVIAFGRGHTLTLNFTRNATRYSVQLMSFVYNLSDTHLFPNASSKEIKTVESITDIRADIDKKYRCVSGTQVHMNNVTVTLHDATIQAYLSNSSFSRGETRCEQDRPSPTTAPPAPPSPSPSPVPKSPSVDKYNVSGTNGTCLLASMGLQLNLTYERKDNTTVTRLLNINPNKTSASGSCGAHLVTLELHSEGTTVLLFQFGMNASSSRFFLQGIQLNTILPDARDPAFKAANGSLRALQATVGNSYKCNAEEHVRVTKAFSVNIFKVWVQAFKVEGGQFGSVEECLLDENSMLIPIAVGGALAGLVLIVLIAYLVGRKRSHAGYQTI
Nature of the assay: FACS on HEK293 cells transiently transfected with human LAMP1. The settings on record: transient HEK293. Type of assay: binding.
Excerpt: as §1

Chain of cynomolgus monkey LAMP1 expressed transiently at the cell surface of HEK293 (as listed by the source): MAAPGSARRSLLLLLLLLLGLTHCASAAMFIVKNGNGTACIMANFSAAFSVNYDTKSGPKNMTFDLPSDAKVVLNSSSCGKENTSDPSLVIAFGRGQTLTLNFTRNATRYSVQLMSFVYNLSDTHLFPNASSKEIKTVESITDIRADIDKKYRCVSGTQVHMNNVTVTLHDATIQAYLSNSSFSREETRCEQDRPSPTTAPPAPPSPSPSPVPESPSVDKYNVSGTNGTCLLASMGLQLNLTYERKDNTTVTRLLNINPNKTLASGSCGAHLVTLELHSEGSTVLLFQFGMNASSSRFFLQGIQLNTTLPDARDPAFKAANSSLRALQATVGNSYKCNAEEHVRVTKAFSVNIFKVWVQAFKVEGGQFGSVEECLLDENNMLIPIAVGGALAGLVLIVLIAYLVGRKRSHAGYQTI
Chain of cynomolgus monkey LAMP1 protein (SEQ ID NO: 29) (as listed by the source): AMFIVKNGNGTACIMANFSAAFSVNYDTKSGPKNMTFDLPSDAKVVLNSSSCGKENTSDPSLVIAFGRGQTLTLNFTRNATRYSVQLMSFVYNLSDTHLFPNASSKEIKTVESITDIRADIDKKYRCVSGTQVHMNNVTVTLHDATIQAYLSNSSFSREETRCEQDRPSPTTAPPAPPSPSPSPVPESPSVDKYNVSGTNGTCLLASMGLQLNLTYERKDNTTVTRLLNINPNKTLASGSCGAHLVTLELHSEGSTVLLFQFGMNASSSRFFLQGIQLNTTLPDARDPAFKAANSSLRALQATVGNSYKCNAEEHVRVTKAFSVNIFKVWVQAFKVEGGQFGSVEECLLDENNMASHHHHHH

B1: MAb1: murine monoclonal anti-LAMP1 antibody, VH SEQ ID NO: 1, VL SEQ ID NO: 5 (antibody, V domains shown)
VH: QVQLQQSGAELVKPGASVKMSCKASGYIFTNYNIHWVKKSPGQGLEWIGAIYPGNGDAPYSQKFKDKATLTADKSSSTTYMQLSRLTSEDSAVYYCVRANWDVAFAYWGQGTLVSVSA
VL: DIQMTQSPPSLSASLGGKVTITCKASQDIDRYMAWYQDKPGKGPRLLIHDTSTLQPGIPSRFSGSGSGRDYSFSISNLEPEDIATYYCLQYDNLWTFGGGTKLEIK
modifications: Antibody Fragment; antibody fragment
Take B1: in assay [1], the Binding call is “Full binding” and the Mean fluorescence is recorded as 499. This molecule came in with an EC50 in assay [2] of 44 nM. The “Binding affinity, cynomolgus monkey LAMP1 versus human LAMP1” value in assay [3] is given as “in the same range”. This molecule also returned an EC50 in assay [4] of 14 nM.
